# Experimental data published in patent US20230020406A1 (published 2023).
# Ends that are not written are not given here. * marks the point of attachment. Biotin = O=C1N[C@H]2[C@H](CS[C@H]2CCCCC(=O)*)N1
# T1: AA111-228 DNA-binding domain of RXR-alpha (UniProt P19793 111-228)
# T1 construct: Bought recombinant protein (Abcam), adsorbed to the plate; also called RXRa-DBD
# T1 sequence (looked up): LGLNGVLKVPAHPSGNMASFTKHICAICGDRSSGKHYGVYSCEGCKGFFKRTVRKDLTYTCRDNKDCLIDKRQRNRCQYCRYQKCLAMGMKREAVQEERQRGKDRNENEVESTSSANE
# B1: immodulator peptide IM5 (peptide)
# peptide: Biotin-RKGFYKRKQCKPSRGRKRGICW
# modifications: cysteine pairing not given here; also: complexed with Streptavidin-Alexa 488 conjugate (SA488)
# notes: Synthetic peptide; also called 1M5
# B2: immodulator peptide IM1 (peptide)
# peptide: Biotin-KNGFYHSRQCETSMDGEAGLCW
# modifications: cysteine pairing not given here; also: complexed with Streptavidin-Alexa 488 conjugate (SA488)
# notes: Synthetic peptide with an IGFBP-derived core
# B3: immodulator peptide IM2 (peptide)
# peptide: Biotin-KHGLYNLKQCKMSLNGQRGECW
# modifications: cysteine pairing not given here; also: complexed with Streptavidin-Alexa 488 conjugate (SA488)
# notes: Synthetic peptide
# B4: immodulator peptide IM3 (peptide)
# peptide: Biotin-KKGFYKKKQCRPSKGRKRGFCW
# modifications: cysteine pairing not given here; also: complexed with Streptavidin-Alexa 488 conjugate (SA488)
# notes: IGFBP-3-derived core; also called 1M3
# B5: immodulator peptide IM4 (peptide)
# peptide: Biotin-RNGNFHPKQCHPALDGQRGKCW
# modifications: cysteine pairing not given here; also: complexed with Streptavidin-Alexa 488 conjugate (SA488)
# notes: Synthetic peptide
# B6: immodulator peptide IM6 (peptide)
# peptide: Biotin-HRGFYRKRQCRSSQGQRRGPCW
# modifications: cysteine pairing not given here; also: complexed with Streptavidin-Alexa 488 conjugate (SA488)
# notes: Synthetic peptide; also called 1M6
# Target: T1, AA111-228 DNA-binding domain of …
# Experiment: plate assay: 1 ug/well RXRa-DBD adsorbed, 800 ng/well SA488-labelled peptide, fluorometer 485/525 nm
# Procedure: Experiment x3A. […] 1 ug/well recombinant RXRa-DBD (Abcam, Cambridge, Mass.) was adsorbed to wells of a 96-well plate for 60 minutes at RT, then blocked with 200 uL 1% BSA in PBS buffer overnight. […] The plate was incubated for 60 min at room temperature, washed and counted in a standard fluorometer (excitation/emission 485/525 nm). Background (buffer alone) was subtracted.
row,Fluorescence,Binder
1,6800 fluorescence units (background subtracted),B1
2,670 fluorescence units (background subtracted),B2
3,2 fluorescence units (background subtracted),B3
4,6570 fluorescence units (background subtracted),B4
5,27 fluorescence units (background subtracted),B5
6,587 fluorescence units (background subtracted),B6
